Measurements published in patent US20220072120A1 (University of Washington, published 2022).

Target: I53-dn5 B
Experiment: in vitro nanoparticle assembly; SEC on Superose 6, SDS-PAGE

B1: I53-dn5 A.2 (A_LF2_W16G_LS) (designed binder)
chain: MGKYDGSKLRIGILHARGNAEIILELVLGALKRLQEFGVKRENIIIETVPGSFELPYGSKLFVEKQKRLGKPLDAIIPIGVLIRGSTAHFDYIADSTTHQLMKLNFELGIPVIFGVLTTESDEQAEERAGTKAGNHGEDWGAAAVEMATKFN
binding result: binds
